Reference: publication doi:10.1101/2022.01.09.475535 (bioRxiv, 2022)
Changes are numbered by the printed parent chain. In names and notes the source's numbering stands. Values belong to the binder of their own block, whether it stands above or below them.

Molecular target: T1, SF3B1 ULM5 peptide (residues 333-351), wild type (human, UniProt O75533-1 333-351)
T1 peptide: KRKSRWDETPASQMGGSTP
Test: ITC

fold increase of affinity against the ULM5 peptide with the longer N-terminus: 2 fold
B1: U2AF2 UHM (U2AF homology motif domain of U2AF2) (domain or fragment)
chain: TEVLCLMNMVLPEELLDDEEYEEIVEDVRDECSKYGLVKSIEIPRPVDGVEVPGCGKIFVEFTSVFDCQKAMQGLTGRKFANRVVVTKYCDPDSYHRRDFW

fold decrease of affinity against the wild-type U2AF2 UHM: 4 fold
B2: U2AF2 UHM K453A (domain or fragment)
chain: B1 chain with K79A
